Assay results taken from patent US20200207857A1.

Tests used:
[1] = target: human Claudin 18.1 (CLDN 18.1) expressed on HEK293 cells (human) (UniProt P56856); test: flow cytometry, 293T-CLDN18.1 cells, FL1-A histogram, gate P1; untransfected 293T: M1 0.0%
[2] = target: Recombinant protein Claudin 18.2; test: ELISA as in Example 1, recombinant Claudin 18.2 coated on the plate, OD450, linear axis in ng/ml
[3] = target: Recombinant protein Claudin 18.2; test: ELISA on plate-coated recombinant Claudin 18.2, OD370; Kd table under the graph, no unit in the table, unit from the x axis log[antibody] nM

Recombinant protein Claudin 18.2, sequence (chain, as listed by the source limits assumed, form in doubt): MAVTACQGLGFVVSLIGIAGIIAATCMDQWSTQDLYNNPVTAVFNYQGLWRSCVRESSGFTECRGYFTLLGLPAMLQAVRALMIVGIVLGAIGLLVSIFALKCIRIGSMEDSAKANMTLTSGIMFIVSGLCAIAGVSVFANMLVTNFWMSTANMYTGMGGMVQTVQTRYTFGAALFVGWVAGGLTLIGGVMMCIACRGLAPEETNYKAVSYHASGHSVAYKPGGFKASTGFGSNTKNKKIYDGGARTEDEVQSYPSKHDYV
human Claudin 18.1 (CLDN 18.1) expressed on HEK293 cells (human), sequence (P56856 whole entry): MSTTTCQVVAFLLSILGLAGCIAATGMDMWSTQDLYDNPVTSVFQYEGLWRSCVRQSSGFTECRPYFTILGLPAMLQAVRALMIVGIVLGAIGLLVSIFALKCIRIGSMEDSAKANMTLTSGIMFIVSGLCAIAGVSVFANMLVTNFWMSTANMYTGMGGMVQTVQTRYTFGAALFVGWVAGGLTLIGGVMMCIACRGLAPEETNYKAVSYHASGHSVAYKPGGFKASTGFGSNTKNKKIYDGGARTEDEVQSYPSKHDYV

B1: Anti-CLDN 18.2-9A1 (antibody, V domains shown)
VH: VQLQQSGAELVRPGTSVKVSCKASRYAFTNYLIEWVKQRPGQGLEWIGMINPGSGGTHYNEKFKVKATLTADKSSSTAYMQLSSLTSDDSAVYFCARGGFGNSFAYWGQGTLVTVSA
VL: DILLTQSPLSLTVTAGEKVTMSCKSSQSLLNGGNLKNYLTWYQQKPGQPPKLLTYWASTRESGVPVRFTGSGSGTDFTLTISSVQAEDLAVYYCQNGYFYPYTFGGGTKLEIK
% of cells in gate M1 [1]: 1.3% | EC50 (read off the curve) [2]: 0.06 mg/L | Kd [3]: 0.0536 nM
